# Measurements from patent US20150259426A1 (Novartis, published 2015).
# T1: OX40 extracellular domain (TNFRSF4, Gly33-Gly212) (UniProt P43489 33-212)
# T1 construct: ECD cloned into pBadThioTopo; E. coli lysate on His capture plates
# T1 sequence (looked up): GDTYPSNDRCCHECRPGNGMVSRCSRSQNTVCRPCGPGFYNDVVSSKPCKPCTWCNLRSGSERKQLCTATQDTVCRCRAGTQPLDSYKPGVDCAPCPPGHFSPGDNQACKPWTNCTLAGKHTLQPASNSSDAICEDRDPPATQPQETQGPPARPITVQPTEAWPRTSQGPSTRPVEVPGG
# T2: DcR2 extracellular domain (TNFRSF10D, Thr57-Thr198) (UniProt Q9UBN6 57-198)
# T2 construct: range 57-198; ECD cloned into pBadThioTopo; E. coli lysate on His capture plates
# T2 sequence (looked up): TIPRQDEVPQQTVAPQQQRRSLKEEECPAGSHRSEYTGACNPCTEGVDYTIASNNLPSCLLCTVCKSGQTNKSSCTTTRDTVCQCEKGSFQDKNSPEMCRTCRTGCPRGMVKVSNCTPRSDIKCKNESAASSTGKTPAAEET
# T3: hGITR (human, UniProt Q9Y5U5)
# T3 construct: extracellular domain, E. coli lysate captured on a His capture plate; Target named only on the sheet; the construct is not described in the text
# T3 sequence (extracellular domain, looked up): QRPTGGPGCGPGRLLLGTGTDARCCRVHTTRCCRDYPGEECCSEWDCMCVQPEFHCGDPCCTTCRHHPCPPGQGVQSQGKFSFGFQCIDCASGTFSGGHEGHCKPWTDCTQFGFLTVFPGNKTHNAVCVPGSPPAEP
# T4: FAS extracellular domain (TNFRSF6, Ser20-Gly175) (UniProt P25445 20-175)
# T4 construct: ECD cloned into pBadThioTopo; E. coli lysate on His capture plates
# T4 sequence (looked up): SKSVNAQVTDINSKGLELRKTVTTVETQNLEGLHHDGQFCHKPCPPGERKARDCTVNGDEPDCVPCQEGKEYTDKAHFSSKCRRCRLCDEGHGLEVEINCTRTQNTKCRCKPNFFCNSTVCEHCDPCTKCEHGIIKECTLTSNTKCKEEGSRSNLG
# T5: DcR3 (TNFRSF6B, Val27-Ala176) (UniProt O95407 27-176)
# T5 construct: range 27-176; ECD cloned into pBadThioTopo; E. coli lysate on His capture plates
# T5 sequence (looked up): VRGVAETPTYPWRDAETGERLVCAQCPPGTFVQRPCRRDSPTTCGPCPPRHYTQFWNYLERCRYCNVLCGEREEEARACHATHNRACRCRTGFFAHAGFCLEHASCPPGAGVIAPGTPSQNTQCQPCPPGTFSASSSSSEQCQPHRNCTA
# T6: OPG (TNFRSF11B, Lys17-Ile197) (UniProt O00300 17-197)
# T6 construct: range 17-197; ECD cloned into pBadThioTopo; E. coli lysate on His capture plates
# T6 sequence (looked up): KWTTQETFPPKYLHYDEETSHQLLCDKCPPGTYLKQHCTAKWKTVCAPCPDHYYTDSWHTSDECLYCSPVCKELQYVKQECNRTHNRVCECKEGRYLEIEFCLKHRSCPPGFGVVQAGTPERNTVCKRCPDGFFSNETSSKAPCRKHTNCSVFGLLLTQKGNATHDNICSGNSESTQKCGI
# T7: TNFR1 extracellular domain (TNFRSF1A, Leu34-Thr211) (UniProt P19438 34-211)
# T7 construct: range 34-211; ECD cloned into pBadThioTopo; E. coli lysate on His capture plates
# T7 sequence (looked up): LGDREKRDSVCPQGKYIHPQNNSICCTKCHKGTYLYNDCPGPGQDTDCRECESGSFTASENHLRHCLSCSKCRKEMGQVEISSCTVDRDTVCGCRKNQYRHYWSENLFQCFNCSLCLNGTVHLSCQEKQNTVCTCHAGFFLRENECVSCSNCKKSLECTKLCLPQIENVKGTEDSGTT
# B1: 11D1 tri (trivalent anti-DR5 NB construct) (VHH)
# chain: EVQLVESGGGLVQPGGSLRLSCAASGSIDSINNMGWYRQAPGKQRELVAEITPRGRTNYADSEKSRFTISRDNAKRTVNLQMNSLKPEDTAVYYCNAEVRERGTSWYRPDYWGQGTQVTVSSGGGGSGGGGSGGGGSGGGGSGGGGSGGGGSGGGGSEVQLVESGGGLVQPGGSLRLSCAASGSIDSINNMGWYRQAPGKQRELVAEITPRGRTNYADSEKSRFTISRDNAKRTVNLQMNSLKPEDTAVYYCNAEVRERGTSWYRPDYWGQGTQVTVSSGGGGSGGGGSGGGGSGGGGSGGGGSGGGGSGGGGSEVQLVESGGGLVQPGGSLRLSCAASGSIDSINNMGWYRQAPGKQRELVAEITPRGRTNYADSEKSRFTISRDNAKRTVNLQMNSLKPEDTAVYYCNAEVRERGTSWYRPDYWGQGTQVTVSS
# notes: three VHH units in one chain joined by GlySer linkers; not shown: CMYC-HIS6 tag
# B2: 7A12 tri (trivalent anti-DR5 NB construct) (VHH)
# chain: EVQLVESGGGLVQAGGSLRLSCAASGRTFSNYAMGWFRQAPGKEREFVAALNWSGGSTYYVDSVKGRFTISRDNAKNTVYLQMNSLKPEDTAVYYCAAAGSFSLGGRPYGDDYWGKGTLVTVSSGGGGSGGGGSGGGGSGGGGSGGGGSGGGGSGGGGSEVQLVESGGGLVQAGGSLRLSCAASGRTFSNYAMGWFRQAPGKEREFVAALNWSGGSTYYVDSVKGRFTISRDNAKNTVYLQMNSLKPEDTAVYYCAAAGSFSLGGRPYGDDYWGKGTLVTVSSGGGGSGGGGSGGGGSGGGGSGGGGSGGGGSGGGGSEVQLVESGGGLVQAGGSLRLSCAASGRTFSNYAMGWFRQAPGKEREFVAALNWSGGSTYYVDSVKGRFTISRDNAKNTVYLQMNSLKPEDTAVYYCAAAGSFSLGGRPYGDDYWGKGTLVTVSS
# notes: as for B1
# B3: 11H6 tri (trivalent anti-DR5 NB construct) (VHH)
# chain: EVQLVESGGGLVQPGGSLRLSCAASGTFDKINNMGWYRQAPGKQRDLVAQITPGGITDYADSVKGRFTISRDNAKDTMYLQMNSLKPEDTAVYFCNAEILKRAYIDVYVNYWGQGTQVTVSSGGGGSGGGGSGGGGSGGGGSGGGGSGGGGSGGGGSEVQLVESGGGLVQPGGSLRLSCAASGTFDKINNMGWYRQAPGKQRDLVAQITPGGITDYADSVKGRFTISRDNAKDTMYLQMNSLKPEDTAVYFCNAEILKRAYIDVYVNYWGQGTQVTVSSGGGGSGGGGSGGGGSGGGGSGGGGSGGGGSGGGGSEVQLVESGGGLVQPGGSLRLSCAASGTFDKINNMGWYRQAPGKQRDLVAQITPGGITDYADSVKGRFTISRDNAKDTMYLQMNSLKPEDTAVYFCNAEILKRAYIDVYVNYWGQGTQVTVSS
# notes: as for B1
# Target: T8, cell-bound human DR5 (Colo205 and other human cell lines) (human, UniProt O14763 56-440)
# Test: cell-based or functional assay
Binder,"IC50, cell survival, A549 [nM]","IC50, cell survival, ARPE-19 [nM]","IC50, cell survival, H226 [nM]","IC50, cell survival, H2052 [nM]","IC50, cell survival, H2122 [nM]","IC50, cell survival, Huvec [nM]","IC50, cell survival, IMR-90 [nM]","IC50, cell survival, Jurkat [nM]","IC50, cell survival, M30 [nM]","IC50, cell survival, MiaPaCa-2 [nM]"
B1,≥ 20,≥ 20,0.03,0.015,0.004,≥ 20,≥ 20,≥ 20,≥ 20,≥ 20
B2,≥ 20,≥ 20,0.03,0.064,0.008,≥ 20,≥ 20,≥ 20,≥ 20,≥ 20
B3,≥ 20,≥ 20,≥ 20,0.36,0.012,≥ 20,≥ 20,≥ 20,≥ 20,≥ 20

# Same assay, conditions: not given
Binder,"IC50, cell survival, Molt4 [nM]","IC50, cell survival, Panc-1 [nM]"
B1,≥ 20,≥ 20
B2,≥ 20,≥ 20
B3,≥ 20,≥ 20

# Target: cynomolgus DR5-Fc fusion protein (cyno DR5 amino acids 56 to 213 fused with human IgG1 Fc) (cynomolgus; human)
# Test: SPR (Biacore), CM5 chip coated with cynomolgus DR5-Fc, 1 to 100 nM NB construct
row,Binder,Kd [nM]
1,B1,< 0.2
2,B2,< 0.03
3,B3,< 0.3

# Target: T8, cell-bound human DR5 (Colo205 and other …)
# Test: cell-based or functional assay
# Remark: another data set of the same source
row,Binder,"IC50, cell survival, Colo205 [nM]"
1,B1,0.111
2,B2,0.12
3,B3,0.0458

# Target: T1, OX40 extracellular domain (TNFRSF4, …)
# Test: ELISA, receptor ECD from E. coli lysate on His capture plate;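 also: binding specificity screen across TNF receptor superfamily ectodomains, anti-V5 detection as expression reference, primary antibody incubation 1 h at room temperature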
row,Binder,binding result
1,B1,no binding (tested: not stated)
2,B2,no binding (tested: not stated)
3,B3,no binding (tested: not stated)

# Target: T9, CD40 extracellular domain (TNFRSF5, Val18-Leu192) (UniProt P25942 18-192)
# T9 construct: range 18-192; ECD cloned into pBadThioTopo; E. coli lysate on His capture plates
# T9 sequence (P25942 18-192 limits assumed): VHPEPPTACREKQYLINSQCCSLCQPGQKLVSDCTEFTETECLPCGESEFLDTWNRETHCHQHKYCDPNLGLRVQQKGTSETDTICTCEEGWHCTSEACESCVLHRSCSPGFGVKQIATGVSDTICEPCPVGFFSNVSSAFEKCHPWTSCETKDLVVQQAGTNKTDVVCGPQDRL
# Test: as above
row,Binder,binding result
1,B1,no binding (tested: not stated)
2,B2,no binding (tested: not stated)
3,B3,no binding (tested: not stated)

# Target: T10, CD137 extracellular domain (TNFRSF9, Glu19-Ile188) (UniProt Q07011 19-188)
# T10 construct: range 19-188; ECD cloned into pBadThioTopo; E. coli lysate on His capture plates
# T10 sequence (Q07011 19-188 limits assumed): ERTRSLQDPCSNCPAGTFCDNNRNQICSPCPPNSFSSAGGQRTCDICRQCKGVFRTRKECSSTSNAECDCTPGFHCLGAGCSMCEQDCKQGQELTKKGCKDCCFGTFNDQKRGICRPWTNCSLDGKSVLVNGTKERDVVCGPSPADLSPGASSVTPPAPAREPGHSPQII
# Test: as above
row,Binder,binding result
1,B1,no binding (tested: not stated)
2,B2,no binding (tested: not stated)
3,B3,no binding (tested: not stated)

# Target: T11, TNFR3 extracellular domain (TNFRSF3, Pro30-Thr224) (UniProt P36941 30-224)
# T11 construct: range 30-224; ECD cloned into pBadThioTopo; E. coli lysate on His capture plates
# T11 sequence (P36941 30-224 limits assumed): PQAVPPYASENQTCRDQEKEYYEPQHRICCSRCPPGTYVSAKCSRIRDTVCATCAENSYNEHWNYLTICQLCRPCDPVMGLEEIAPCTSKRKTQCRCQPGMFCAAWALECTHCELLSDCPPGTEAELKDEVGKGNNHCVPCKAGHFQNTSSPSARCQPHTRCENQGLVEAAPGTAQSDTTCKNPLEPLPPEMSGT
# Test: as above
row,Binder,binding result
1,B1,no binding (tested: not stated)
2,B2,no binding (tested: not stated)
3,B3,no binding (tested: not stated)

# Target: T2, DcR2 extracellular domain (TNFRSF10D, …)
# Test: as above
row,Binder,binding result
1,B1,no binding (tested: not stated)
2,B2,no binding (tested: not stated)
3,B3,no binding (tested: not stated)

# Target: T3, hGITR
# Test: as above
row,Binder,binding result
1,B1,no binding (tested: not stated)
2,B2,no binding (tested: not stated)
3,B3,no binding (tested: not stated)

# Target: T12, BAFFR extracellular domain (TNFRSF13C, Met1-Gly64) (UniProt Q96RJ3 1-64)
# T12 construct: range 1-64; ECD cloned into pBadThioTopo; E. coli lysate on His capture plates
# T12 sequence (Q96RJ3 1-64 limits assumed): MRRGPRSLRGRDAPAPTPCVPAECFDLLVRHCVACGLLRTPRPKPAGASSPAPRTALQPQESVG
# Test: as above
row,Binder,binding result
1,B1,no binding (tested: not stated)
2,B2,no binding (tested: not stated)
3,B3,no binding (tested: not stated)

# Target: T4, FAS extracellular domain (TNFRSF6, …)
# Test: as above
row,Binder,binding result
1,B1,no binding (tested: not stated)
2,B2,no binding (tested: not stated)
3,B3,no binding (tested: not stated)

# Target: T5, DcR3 (TNFRSF6B, Val27-Ala176)
# Test: as above
row,Binder,binding result
1,B1,no binding (tested: not stated)
2,B2,no binding (tested: not stated)
3,B3,no binding (tested: not stated)

# Target: T6, OPG (TNFRSF11B, Lys17-Ile197)
# Test: as above
row,Binder,binding result
1,B1,no binding (tested: not stated)
2,B2,no binding (tested: not stated)
3,B3,no binding (tested: not stated)

# Target: T13, CD27 extracellular domain (TNFRSF7, Thr21-Ser187) (UniProt P26842 21-187)
# T13 construct: range 21-187; ECD cloned into pBadThioTopo; E. coli lysate on His capture plates
# T13 sequence (P26842 21-187 limits assumed): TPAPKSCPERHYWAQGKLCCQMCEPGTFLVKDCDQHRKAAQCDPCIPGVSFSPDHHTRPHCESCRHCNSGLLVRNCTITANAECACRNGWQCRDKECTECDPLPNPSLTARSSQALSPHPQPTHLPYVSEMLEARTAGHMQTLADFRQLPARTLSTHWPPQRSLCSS
# Test: as above
row,Binder,binding result
1,B1,no binding (tested: not stated)
2,B2,no binding (tested: not stated)
3,B3,no binding (tested: not stated)

# Target: T7, TNFR1 extracellular domain (TNFRSF1A, …)
# Test: as above
row,Binder,binding result
1,B1,no binding (tested: not stated)
2,B2,no binding (tested: not stated)
3,B3,no binding (tested: not stated)
